The target of one assay is T1, epithin (mouse, UniProt P56677 615-855, limits assumed).
T1 construct: also called mouse homologue of MT-SP1; A11 (Epithin)
T1 sequence (looked up): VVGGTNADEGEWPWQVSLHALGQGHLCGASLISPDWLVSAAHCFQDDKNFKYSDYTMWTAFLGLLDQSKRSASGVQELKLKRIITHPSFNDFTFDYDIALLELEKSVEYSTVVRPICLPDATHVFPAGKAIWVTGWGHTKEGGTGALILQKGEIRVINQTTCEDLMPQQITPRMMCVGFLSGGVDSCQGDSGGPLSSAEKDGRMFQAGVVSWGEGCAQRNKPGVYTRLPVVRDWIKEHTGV
Description: steady state kinetics, inhibition of epithin.

Assay [1] concerns the target T2, human MT-SP1 protease domain (human, UniProt Q9Y5Y6 615-855).
T2 construct: domain: protease domain; also called hMT-SP1; matriptase
T2 sequence (looked up): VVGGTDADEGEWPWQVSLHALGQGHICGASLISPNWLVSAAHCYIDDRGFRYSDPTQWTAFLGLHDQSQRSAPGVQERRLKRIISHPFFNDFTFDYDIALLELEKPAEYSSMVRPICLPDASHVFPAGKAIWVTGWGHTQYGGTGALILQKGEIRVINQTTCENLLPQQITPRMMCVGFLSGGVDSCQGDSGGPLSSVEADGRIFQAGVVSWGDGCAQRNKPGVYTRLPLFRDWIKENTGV
Description: steady state kinetics.
Description: (§1) Briefly, all reactions were carried out in 50 mM Tris, pH 8.8, 50 mM NaCl, 0.01% Tween-20 in 96-well, medium binding, flat-bottomed plate (Corning), and cleavage of substrate (Spectrazyme-tPA (hexahydrotyrosyl-Gly-Arg-pNA), American Diagnostica, Greenwich, Conn.) was monitored in a UVmax Microplate Reader (Molecular Devices Corporation, Palo Alto, Calif.). […] Reactions to determine the IC₅₀'s were carried out by incubating 0.2 nM enzyme with inhibitor for >5 hours to assure steady-state behavior of the system. […] Inhibitor activity was also measured using the chromogenic substrate Spectrafluor tPA (American diagnostica, Inc.). […] Kaleidagraph 3.6 was used to fit all graphs and equations (Synergy Software, Reading, Pa.).

Assay [2] deals with T2, human MT-SP1 protease domain. As to the kind of experiment: steady state kinetics, tight-binding inhibition of Spectrazyme-tPA cleavage.
Description: as §1
Assay [3] has the same target. Description: steady state kinetics, probably pM (the same paragraph prints 720 µM for what Table 3 gives as 0.72 nM).
Description: as §1

Where a chain is given by its changes, count along the chain named.

B1: A11 Fab (Fab, V domains shown)
VH: EVQLVQSGGGLVKPGGSLRLSCAASGFTFSSYAMSWVRQAPGKGLEWVSAISGSGGSTYYADSVKGRFTISRDNSKNTLYLQMSSLRAEDTAVYYCVKDLGIAARRFVSGAFDIWGQGTMVTVSS
VL: EIVLTQSPGTLSLSPGERATLSCRASQSVSSSYLAWYQQKPGQAPRLLIYGASTRATGIPARFSGSGSGTDFTLTINSLEPEDFAVYYCQQRSNWPPGYTFGQGTKVEIKR
notes: Human Fab from a naive phage library, VH3 heavy chain and Vkappa3 light chain; The Fab was made in E. coli for biochemical assays and in T. reesei for crystallisation; also called Fab A11; recombinant A11 Fab
As to B1, the affinity with epithin corresponds to a Ki of 0.087 µM.

B2: A11 H R100bK (Fab, V domains shown)
VH: B1 VH with R106K
VL: B1 VL
notes: also called ArgH100bLys; A11 mutant ArgH100bLys
B2: the “fold change of KI over wild-type A11” value in assay [1] was 250 fold. For the same molecule, the Ki (in general, a measure of affinity in units of concentration, obtained from inhibition or displacement) in assay [2] was 0.18 µM.

B3: A11 H R100bA (Fab, V domains shown)
VH: B1 VH with R106A
VL: B1 VL
notes: also called ArgH100bAla; A11 mutant ArgH100bAla
With B3, in assay [1], the “fold change of KI over wild-type A11” value turned out to be 250 fold. The molecule also yielded a Ki in assay [2] of 0.18 µM.

B4: A11 H R100aA (Fab, V domains shown)
VH: B1 VH with R105A
VL: B1 VL
notes: also called ArgH100aAla; A11 mutant ArgH100aAla
Regarding B4, the “fold change of KI over wild-type A11” value in assay [1] was approximately 2 fold. The same molecule showed a Ki in assay [2] of 0.0015 µM.

B5: E2 Fab (Fab, V domains shown)
VH: QVQLVQSGGGLVKPGGSLRLSCAASGFTFSSYAMSWVRQAPGKGLEWVSAISGSGGSTYYADSVKGRFTISRDNSKNTLYLQMSSLRAEDTAVYYCARPYLTYPQRRGPQNVSPFDNWGQGTMVTVSS
VL: DIQMTQSPSSLSASVGDRVTITCRASQGISSYLAWYQQKPGKAPKLLIYAASSLQSGVPSRFSGSGSGTDFTLTISSLQPEDFAVYYCQQHGNLPYTFGDGTKVEIKR
notes: also called anti-MT-SP1 Fab antibody E2
As to B5, in assay [3], the Ki came out at 12 µM.

The record behind these values is US20120141373A1 (University of California, published 2012).
